This is an account of results in patent US20100190182A1, “DIAGNOSTIC COMPOSITION AND METHOD FOR THE DETECTION OF A TRICHINELLA INFECTION” (priority 2007, published 2010).

For assay [1], the target named is 5-CF-Trp-Gly(9)-FLAG. The assay can be described thus: fluorescence polarisation assay; tracer 2.7 nM, 10 molar equivalents of antibody. For orientation: Fluorescence polarisation rises when a labelled molecule tumbles more slowly, as on binding a larger partner.
Assay [2] addresses 5-CF-Trp(2)-Gly(9)-FLAG. The description is as above.
In assay [3] the target is 5-CF-Pro-Gly(9)-FLAG. Described as above.
For assay [4], the target named is 5-CF-Trp-Gly(9)-FLAG. The assay is described as follows: fluorescence polarisation assay; tracer 2.7 nM, 3 molar equivalents of antibody.
Assay [5] concerns the target 5-CF-Trp(2)-Gly(9)-FLAG. The description is as above.
Assay [6] concerns the target 5-CF-Pro-Gly(9)-FLAG. Described as above.
Assay [7] deals with 5-CF-Trp-Gly(9)-FLAG. The assay can be described thus: fluorescence polarisation assay; tracer 8.1 nM, 1 molar equivalent of antibody.
The target in assay [8] is 5-CF-Trp(2)-Gly(9)-FLAG. Described as above.
In assay [9] the target is 5-CF-Pro-Gly(9)-FLAG. The description is as above.
The target of assay [10] is 5-CF-Trp-Gly(9)-FLAG. The assay is described as follows: fluorescence polarisation assay; tracer 8.1 nM, 10 molar equivalents of antibody.
Assay [11] deals with 5-CF-Trp(2)-Gly(9)-FLAG. The description is as above.
For assay [12], the target named is 5-CF-Pro-Gly(9)-FLAG. The description is as above.
For assay [13], the target named is 5-CF-Trp-Gly(9)-FLAG. The assay is described as follows: fluorescence polarisation assay; tracer 2.7 nM, 1 molar equivalent of antibody.
Assay [14] has as its target 5-CF-Trp(2)-Gly(9)-FLAG. The description is as above.
In assay [15] the target is 5-CF-Pro-Gly(9)-FLAG. The assay is described as above.
Assay [16] has as its target 5-CF-Trp-Gly(9)-FLAG. The assay is described as follows: fluorescence polarisation assay; tracer 8.1 nM, 3 molar equivalents of antibody.
The target in assay [17] is 5-CF-Trp(2)-Gly(9)-FLAG. The assay is described as above.
In assay [18] the target is 5-CF-Pro-Gly(9)-FLAG. Described as above.

With “anti-FLAG M2 monoclonal antibody (Sigma, Switzerland)”, the ΔmP was 55 mP in the assay with 5-CF-Trp-Gly(9)-FLAG [1]; 97 mP in the assay with 5-CF-Trp(2)-Gly(9)-FLAG [2]; 33 mP in the assay with 5-CF-Pro-Gly(9)-FLAG [3]; 27 mP with 5-CF-Trp-Gly(9)-FLAG [4]; 35 mP in the assay with 5-CF-Trp(2)-Gly(9)-FLAG [5]; 15 mP with 5-CF-Pro-Gly(9)-FLAG [6]. The ΔmP with 5-CF-Trp-Gly(9)-FLAG [7] was found to be 19 mP; with 5-CF-Trp(2)-Gly(9)-FLAG [8], 37 mP; with 5-CF-Pro-Gly(9)-FLAG [9], 14 mP; with 5-CF-Trp-Gly(9)-FLAG [10] it was 86 mP; in the assay with 5-CF-Trp(2)-Gly(9)-FLAG [11] it was 124 mP; with 5-CF-Pro-Gly(9)-FLAG [12], 62 mP. Moreover, the ΔmP stood at 9 mP with 5-CF-Trp-Gly(9)-FLAG [13]; 5 mP with 5-CF-Trp(2)-Gly(9)-FLAG [14]; 5 mP in the assay with 5-CF-Pro-Gly(9)-FLAG [15]; 50 mP with 5-CF-Trp-Gly(9)-FLAG [16]; 78 mP with 5-CF-Trp(2)-Gly(9)-FLAG [17]; 33 mP with 5-CF-Pro-Gly(9)-FLAG [18].
